# Measured values: paper PMC4159253
# Target: F241A IgG1 Fc fragment (human)
# Test: crystal structure
substance,measurement,value
F241A IgG1 Fc fragment (domain or fragment),stoichiometry N,2
